Target: β2m lacking the N-terminal six residues of the mature protein (human)
Assay: SEC; analytical size exclusion chromatography of 1 mg/ml protein in phosphate buffered saline pH 7.3 at 25°C; monomer and dimer peaks

Substance: β2m lacking the N-terminal six residues of the mature protein (domain or fragment)
- percent dimeric: 4%
